Laboratory results: article PMC7616783, “A combined structural and biochemical approach reveals translocation and stalling of UvrB on the DNA lesion as a mechanism of damage verification in bacterial nucleotide excision repair” (DNA repair, 2019)

B1: Thermus thermophilus UvrB (natural protein, UniProt Q56243 1-665, looked up)
chain: MTFRYRGPSPKGDQPKAIAGLVEALRDGERFVTLLGATGTGKTVTMAKVIEALGRPALVLAPNKILAAQLAAEFRELFPENAVEYFISYYDYYQPEAYVPGKDLYIEKDASINPEIERLRHSTTRSLLTRRDVIVVASVSAIYGLGDPREYRARNLVVERGKPYPREVLLERLLELGYQRNDIDLSPGRFRAKGEVLEIFPAYETEPIRVELFGDEVERISQVHPVTGERLRELPGFVLFPATHYLSPEGLEEILKEIEKELWERVRYFEERGEVLYAQRLKERTLYDLEMLRVMGTCPGVENYARYFTGKAPGEPPYTLLDYFPEDFLVFLDESHVTVPQLQGMYRGDYARKKTLVDYGFRLPSALDNRPLRFEEFLERVSQVVFVSATPGPFELAHSGRVVEQIIRPTGLLDPLVRVKPTENQILDLMEGIRERAARGERTLVTVLTVRMAEELTSFLVEHGIRARYLHHELDAFERQALIRDLRLGHYDCLVGINLLREGLDIPEVSLVAILDADKEGFLRSERSLIQTIGRAARNARGEVWLYADRVSEAMQRAIEETNRRRALQEAYNLEHGITPETVRKEVRAVIRPEGYEEAPLEADLSGEDLRERIAELELAMWQAAEALDFERAARLRDEIRALEARLQGVRAPEPVPGGRKRKRR
notes: theoretical MW printed as 76.2 kDa; Two UvrB monomers stand in the complex, one on each side of the UvrA dimer; The complex is heterologous (T. maritima UvrA with T. thermophilus UvrB); also called Tt-UvrB; Thermus thermophilus (Tt) UvrB; source: BL21-CodonPlus(DE3)-RIL, pET28 based plasmid, purified (nickel resin, HRV 3C digestion, nickel resin, gel filtration)
B2: Thermotoga maritima UvrA (natural protein)
chain: MNEIVVKGARVHNLKNITVRIPKNRLVVITGVSGSGKSSLAMDTIYAEGQRRYLESLSTYARQFLGNLKKPDVDEIEGLSPAIAIDQKTVSHNPRSTVGTVTEIYDYLRVLYARIGKAHCPECGRPLEKKSIDEILQDLFNSFKEGSRIYILAPVATEKKGTFKKEIEEFISKGFARIEIDGEIYRLEEVPELDKNKRHTVKLVVDRLILETRNEHRILDSLELAMREGKGFVEIRNVDTGESKIFSENLMCPVCGIGFPEITPKLFSFNSPYGACPNCHGLGFTFEVDPSLVIDEEKSVLEGAIIPYRWDRRLSRWVAREIEKRGVSPHLPFKDLPEDVKEFILYGDDRFEGVVPKVQRWHRETESPEMKEWLEKNFIVQRTCSVCGGRRLNREALSVKINGLNIHEFTELSISEELEFLKNLNLTEREREIVGELLKEIEKRLEFLVDVGLEYLTLSRSATTLSGGESQRIRLATQIGSGLTGVIYVLDEPTIGLHPRDTERLIKTLKKLRDLGNTVIVVEHDEEVIRNADHIIDIGPGGGTNGGRVVFQGTVDELLKNPDSSLTGEYLSGKRKITVNKTRRLPYASLKIKGVRHNNLKNIDVEIPLGVFVCVTGVSGSGKSSLVMETLYPALMNLLHKTKLPAGEFDSIEGHENIDKMIAIDQSPIGRTPRSNPATYTKVFDEIRSLFAMTPAAKARGYNKSRFSFNLKGGRCEACQGQGYVKIEMLFLPDVYVECDVCKGKRYNRETLEITYKGKNISDILDMTVDEALEFFKNIPSIKRTLQVLHDVGLGYVKLGQPATTLSGGEAQRIKLASELRKRDTGRTLYILDEPTVGLHFEDVRKLVEVLHRLVDRGNTVIVIEHNLDVIKNADHIIDLGPEGGKEGGYIVATGTPEEIAKNPHSYTGRFLKNVL
notes: UvrA, Thermotoga maritima; theoretical MW of the dimer printed as 205.8 kDa; the modelling section counts residues 1-916; In the assays it stood with fluorescein-modified DNA, ADP and Mg2+; also called Tm-UvrA; T. maritima (Tm) UvrA; source: BL21 STAR (DE3), pET28-SUMO based plasmid, purified (nickel resin, Ulp1 digestion, nickel resin, gel filtration)

Columns and labels:
Thermotoga maritima UvrA = biological target: B2; assay: SEC-MALS; UvrA dimer (2.5 mg/ml) mixed 1:1 with self-annealed DNA (32 bp ds region, two fluorescein-modified thymines, 10 nt 5' overhangs), UvrB at two-fold molar excess over the UvrA dimer; dialysed at 4 °C against 20 mM HEPES pH 7.0, 150 mM NaCl, 5% glycerol, 1 mM DTT, 10 mM MgCl2; 1 mM ADP added; BioSuite High Resolution SEC column with MALS detector; conditions: both partners purified
[1] = biological target: the molecule itself; assay: as above

| Binder | stoichiometry N (Thermotoga maritima UvrA) [UvrB per UvrA dimer] | stoichiometry N [1] |
| --- | --- | --- |
| B1 | 2 | – |
| B2 | – | 2 |
